Earlier results on one substance are cited in publication PMC2904371.

pKd: −log10 of the molar value.

The target in the series is Vinculin tail Vd5 (UniProt P18206).

In the case of “Vinculin head Vd1-Vd4 (from UniProt P18206)”, the pKd is 9.00.
